The values below come from paper doi:10.1101/2025.01.28.635075.

Assay [1] deals with MMOH protomer (αβγ) from Methylosinus sporium 5 (Methylosinus sporium 5). Put plainly: cryo-EM structure.
For assay [2], the target named is soluble methane monooxygenase hydroxylase (MMOH), α2β2γ2, from Methylosinus sporium 5 (Methylosinus sporium 5). Put plainly: cryo-EM structure.

As usually defined, the stoichiometry N is the number of molecules, sites or subunits per partner or assembly.

Where “and” joins values, the source holds several entries; their conditions need not be identical. Equal values may be shown once.

On to “MMOH protomer (αβγ) from Methylosinus sporium 5 (from UniProt A0ACH3GMT4 1-520) (complex)”, for which the stoichiometry N in assay [1] is 2.
As for “regulatory component of soluble methane monooxygenase (MMOB) from Methylosinus sporium 5 (natural protein)”, in assay [2], the stoichiometry N was 1 and 2.
